Source: patent publication US10941200B2, “TREM2 cleavage modulators and uses thereof” (Deutsches Zentrum Für Neurodegenerative Erkrankungen EV, priority 2016, dated 2021)
“Also recorded” adds a separate entry of the source.

T1: human TREM2 (Homo sapiens, UniProt Q9NZC2)
T1 construct: HEK293 Flp-In cells either expressing human full-length TREM2 or empty vector; expressed in transfected cells
T1 sequence (Q9NZC2 19-230): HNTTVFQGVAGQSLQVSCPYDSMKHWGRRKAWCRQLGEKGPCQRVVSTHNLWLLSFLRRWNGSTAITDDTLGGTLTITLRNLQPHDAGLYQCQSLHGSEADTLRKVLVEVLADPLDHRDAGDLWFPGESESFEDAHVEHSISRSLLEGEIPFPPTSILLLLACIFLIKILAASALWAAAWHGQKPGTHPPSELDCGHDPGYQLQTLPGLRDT

B1: clone 14D8: rat monoclonal antibody against TREM2 cleavage site peptide; heavy chain variable SEQ ID NO: 24, light chain variable SEQ ID NO: 34 (antibody, V domains shown)
VH: EVKLLESGGGLVQPGGSMRLSCAASGFTFTDFYMNWIRQPAGKAPEWLGLIRNKANGYTTVYNPSVKGRFTISRDNTQNMLYLQMNTLRGEDTATYYCARIGINNGGSLDYWGQGVMVTVSS
VL: DILINQSPASLTVSTGEKVTMSCRSSQSLLYSEKNQDYLAWYQQKPGQFPKLLIYGASYRHTGVPDRFTGSGSGTDFTLTISSVQAEDLADYYCEQTYSYPYTFGAGTKLELK
modifications: Clone 14D8 variable region of the heavy chain; Clone 14D8 variable region of the light chain

Assays:
human TREM2 [1] = target: T1, human TREM2; experiment: sTREM2 ELISA of conditioned media from HEK293 Flp-In cells stably overexpressing wt TREM2 (ectodomain shedding); type: cell-based
Procedure: (§1) 1*10^6-1.5*10^6 cells were seeded in the 6-well format. 24 hours later fresh medium was added to the cells. Antibody clones as generated by Dr. Feederle (Helmholtz Center Munich, Core Facility Monoclonal Antibody Development) were added simultaneously, i.e. for overnight treatment (about 24 hrs), at a final concentration of 50 μg/mL. On the next day, conditioned media and cells were collected and processed as described under “Preparation of conditioned media, cell lysates, and immunoblotting”.
(§2) ADAM10 inhibitor G1254023X (5 μM final concentration) and a control monoclonal antibody, which is specific for the C terminus of human TREM2, were used as positive and negative controls, respectively.
For quantitation of levels of sTREM2 in cell culture supernatants, an ELISA for human sTREM2 was established using the Meso Scale Discovery SECTOR Imager 2400. Streptavidin-coated 96-well plates were blocked overnight at 4° C. in 0.5% bovine serum albumin (BSA) and 0.05% Tween 20 in PBS (pH 7.4) (blocking buffer). For detection of human sTREM2, plates were shaken for 1 hour at room temperature with biotinylated polyclonal goat anti-human TREM2 capture antibody (0.25 mg/ml; R&D Systems) diluted in blocking buffer. Plates were washed subsequently four times with 0.05% Tween 20 in PBS (washing buffer) and incubated for 2 hours at room temperature with samples diluted 1:4 in 0.25% BSA and 0.05% Tween 20 in PBS (pH 7.4) (assay buffer) supplemented with protease inhibitors (Sigma). Recombinant human TREM2 protein (Holzel Diagnostika) was diluted in assay buffer in a two-fold serial dilution and used for the standard curve (concentration range, 4000 to […]). Plates were washed three times for 5 min with washing buffer before incubation for 1 hour at room temperature with mouse monoclonal anti-TREM2 antibody (1 mg/ml; Santa Cruz Biotechnology; B-3) diluted in blocking buffer. After three additional washing steps, plates were incubated with a SULFO-TAG-labeled anti-mouse secondary antibody (1:1000; Meso Scale Discovery) and incubated for 1 hour in the dark. Last, plates were washed three times with washing buffer followed by two washing steps in PBS and developed by adding Meso Scale Discovery Read buffer. The light emission at 620 nm after electrochemical stimulation was measured using the Meso Scale Discovery SECTOR Imager 2400 reader. To quantify the levels of sTREM2 secreted from HEK293 Flp-In cells, conditioned media from biological replicates were analyzed in duplicates. The sTREM2 standard curves were generated using the MasterPlex ReaderFit software (MiraiBio Group, Hitachi Solutions America) through a five-parameter logistic fit. Levels of sTREM2 were subsequently normalized to levels of immature TREM2 as quantified from Western Blots.

human TREM2 [2] = target: T1, human TREM2; experiment: Immunoblotting of mature TREM2 in membrane fractions of HEK cells stably overexpressing wt TREM2; type: cell-based
Procedure: (§3) HEK293 Flp-In cells stably overexpressing TREM2 or TREM2-DAP12 cDNA constructs were seeded at a density of 1.5×10^5/cm^2 and medium changed 48 h post seeding. Conditioned medium was collected after 18-20 h, immediately cooled down on ice, centrifuged at 13,000 rpm for 20 min at 4° C. and supernatants frozen at −20° C. until analysis. Supernatants were directly subjected to standard 15% SDS-PAGE. To prepare membrane fractions, cells were washed twice with ice-cold PBS, resuspended in ice-cold hypotonic buffer (0.01 M Tris, pH 7; 1 mM EDTA; 1 mM EGTA), freshly supplemented with protease inhibitor (Sigma) and incubated on ice for 30 min. After snap freezing in liquid
nitrogen and thawing, the disrupted cells were centrifuged at 13,000 rpm for 45 min at 4° C.
The resulting pellet was resuspended in STE lysis buffer (150 mM NaCl, 50 mM Tris-HCl,
pH 7.6, 2 mM EDTA, 1% Triton-X 100), incubated for 20 min on ice and clarified by centrifugation at 13,000 rpm for 30 min at 4° C. Protein concentrations were measured using the BCA method, equal amounts of protein were mixed with Laemmli sample buffer, supplemented with beta mercaptoethanol, separated by SDS-PAGE and transferred onto polyvinylidene difluoride membranes (Hybond P; Amersham Biosciences, Aylesbury, UK). Bound antibodies were visualized by corresponding HRP-conjugated secondary antibodies
(§4) using enhanced chemiluminescence technique (Pierce). Quantification of immunoblots was performed on a LAS-4000 image reader and analyzed using the Multi-Gauge V3.0 software (both Fujifilm Life Science).
as §1, §2

human TREM2 [3] = experiment: MALDI-TOF mass spectrometry analysis of TREM2 ectodomain cleavage (C-terminal fragment) in HEK293 cells; type: cell-based; settings: C-terminally FLAG-tagged TREM2 in HEK293 cells; FIG. 1B; listed as GI
Procedure: HEK293 Flp-In cells stably expressing WT and H157Y TREM2 were harvested in PBS. Cell pellets were frozen at −20° C. until use. Cells were lysed in lysis buffer (4% DDM, 0.1% N-octylglucoside, 10 mM Tris-HCl, pH 8.0, 5 mM EDTA, and 140 mM NaCl) containing protease inhibitor mix (Sigma-Aldrich) for 20 min on ice. Following a clarifying spin at 13,000 g for 20 min, supernatants were subjected to a second clarifying spin by centrifugation at 100,000 g for 1 h, and incubated with anti-FLAG M2-agarose (Sigma-Aldrich) overnight by rotation at 4° C. Beads were washed four times with IP/MS buffer (0.1% N-octylglucoside, 10 mM Tris-HCl, pH 8.0, 5 mM EDTA, and 140 mM NaCl) and two times with water. Beads were stored at −20° C. until IP/MS analysis.
IP/MS analysis was performed using Voyager DE STR (Applied Biosystems) as described previously). Immunoprecipitated peptides were eluted with TFA/CH3CN/water (1:20:20) saturated with α-cyano-4-hydroxy cinnamic acid. The dissolved samples were dried on a stainless plate and subjected to MALDI-TOF MS analysis.

human TREM2 [4] = target: T1, human TREM2; settings: Kleinberger et al, 2014; cited from earlier work
human TREM2 [5] = target: T1, human TREM2; experiment: Anti-HA immunoblotting of soluble TREM2 (sTREM2) from conditioned media of HEK cells stably overexpressing wt TREM2; type: cell-based; settings: antibody 50 μg/mL, 24 hrs; FIG. 7A top blot
Procedure: as §3, §4
1*10^6-1.5*10^6 cells were seeded in the 6-well format. 24 hours later fresh medium was added to the cells. Antibody clones as generated by Dr. Feederle (Helmholtz Center Munich, Core Facility Monoclonal Antibody Development) were added simultaneously, i.e. for overnight treatment (about 24 hrs), at a final concentration of 50 μg/mL. On the next day, conditioned media and cells were collected and processed as described under “Preparation of conditioned media, cell lysates, and immunoblotting”. […]

Molecule	decrease in shedding (sTREM2 ELISA) (human TREM2 [1]; ADAM10 inhibitor 5 μM, about 24 hrs, positive control, normalized to immature TREM2)	levels of mature TREM2, result in words (human TREM2 [2]; ADAM10 inhibitor 5 μM, positive control)	TREM2 C-terminal fragment cleavage peak in MALDI-TOF mass spectra upon ADAM inhibition (human TREM2 [3])	inhibition of TREM2 cleavage (literature) (human TREM2 [4])	sTREM2 levels (ELISA), result in words (human TREM2 [1]; antibody 50 μg/mL, 24 hrs, normalized to immature TREM2, FIG. 7B)	activity to inhibit TREM2 cleavage (summary statement) (human TREM2 [1]; ranking among the antibody clones of the Examples)	increase in levels of mature TREM2 in the membrane fraction (immunoblot), result in words (human TREM2 [2]; antibody 50 μg/mL, 24 hrs, FIG. 7A bottom blot)	levels of mature TREM2 in the membrane fraction (quantified immunoblots), result in words (human TREM2 [2]; antibody 50 μg/mL, 24 hrs, normalized to immature TREM2, FIG. 7C)	extent of ectodomain cleavage (sTREM2 immunoblot), result in words (human TREM2 [5])
CNC(=O)[C@@H](NC(=O)[C@H](CCCc1ccccc1)[C@H](C)N(O)C=O)C(C)(C)C [G1254023X]	about 60%	increased levels of mature TREM2	no identified peak; also recorded: did not show any peak	strongly inhibit cleavage					
B1					decreases in sTREM2 levels comparable to the ADAM10 inhibitor G1254023X; also recorded: decreased levels of sTREM2	very high activity to inhibit TREM2 cleavage	comparable to if not higher than the increase as seen with the ADAM10 inhibitor G1254023X	increases in levels of mature TREM2 comparable to or even higher than the ADAM10 inhibitor G1254023X; also recorded: increases in levels of mature TREM2 in the membrane fraction	strongly reduce the extent of ectodomain cleavage
